Test system: NC(=O)c1ccc[n+]([C@@H]2O[C@H](COP(=O)(O)OP(=O)(O)OC[C@H]3O[C@@H](n4cnc5c(N)ncnc54)[C@H](O)[C@@H]3O)[C@@H](O)[C@H]2O)c1
Experiment: purified protein
Settings: pH 8.1

(Oryza sativa Japonica Group)
Km: 193.7 ± 98.2 µM
